Source: US20120316071A1 (published 2012)
Substitutions are numbered along the chain they refer to. Names may count otherwise.

Tests used:
[1] = molecular target: T1, rHuman ErbB2/Fc Chimera, CF (R&D Systems Cat#1129-ER) (human, UniProt P04626 23-652); assay: ECL multispot (MSD), antigen spotted, Fab in solution; blank spot 407
T1 construct: Bought reagent

[2] = molecular target: T2, rHuman P-Cadherin/Fc Chimera, CF (R&D Systems Cat#861-PC) (human, UniProt P22223 108-654); assay: as above
T2 construct: Bought reagent

[3] = molecular target: T3, rHuman HGF R/c-MET/Fc Chimera, CF (R&D Systems Cat#358-MT/CF) (human, UniProt P08581 25-932); assay: as above
T3 construct: Bought reagent; also called HGF R/Fc

[4] = molecular target: T4, rHuman EGF R/Fc Chimera, CF (R&D Systems Cat#344-ER) (human, UniProt P00533 25-645); assay: as above
T4 construct: Bought reagent

[5] = molecular target: T5, rHuman IGF-1 sR (insulin-like growth factor-1 soluble receptor), CF (R&D Systems Cat#391-GR) (human, UniProt P08069 31-932); assay: as above
T5 construct: Bought soluble receptor

[6] = molecular target: T6, rHuman Erythropoietin R/Fc Chimera, CF (R&D Systems Cat#963-ER) (human, UniProt P19235 25-250); assay: as above
T6 construct: Bought reagent; also called EPO R; Epo R/Fc
T6 sequence (looked up): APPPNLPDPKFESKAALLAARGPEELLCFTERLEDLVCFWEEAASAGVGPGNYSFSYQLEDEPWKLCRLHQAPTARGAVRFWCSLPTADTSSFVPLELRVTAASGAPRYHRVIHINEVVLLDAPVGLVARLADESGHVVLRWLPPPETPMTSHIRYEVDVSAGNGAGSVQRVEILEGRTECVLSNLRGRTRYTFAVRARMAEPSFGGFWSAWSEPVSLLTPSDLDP

[7] = molecular target: T7, rHuman CD44/Fc Chimera, CF (R&D Systems Cat#3660-CD) (human, UniProt P16070 21-220); assay: as above
T7 construct: Bought reagent

[8] = molecular target: T8, rHuman Notch-1/Fc Chimera, CF (R&D Systems Cat#3647-TK) (human, UniProt P46531 19-526); assay: as above
T8 construct: Bought reagent

[9] = molecular target: T9, Recombinant Human DLL4 (R&D Systems Cat#1506-D4/CF) (human, UniProt Q9NR61 27-524); assay: as above
T9 construct: Bought recombinant protein; also called delta-like protein 4; rHuman DLL4

[10] = molecular target: T1, rHuman ErbB2/Fc Chimera, CF (R&D …); assay: ECL multispot (MSD), antigen spotted, Fab in solution; blank spot 262
[11] = molecular target: T2, rHuman P-Cadherin/Fc Chimera, CF (R&D …); assay: as above
[12] = molecular target: T3, rHuman HGF R/c-MET/Fc Chimera, CF (R&D …); assay: as above
[13] = molecular target: T4, rHuman EGF R/Fc Chimera, CF (R&D …); assay: as above
[14] = molecular target: T5, rHuman IGF-1 sR (insulin-like growth …); assay: as above
[15] = molecular target: T6, rHuman Erythropoietin R/Fc Chimera, CF …; assay: as above
[16] = molecular target: T7, rHuman CD44/Fc Chimera, CF (R&D Systems …); assay: as above
[17] = molecular target: T8, rHuman Notch-1/Fc Chimera, CF (R&D …); assay: as above
[18] = molecular target: T9, Recombinant Human DLL4 (R&D Systems …); assay: as above
[19] = molecular target: T1, rHuman ErbB2/Fc Chimera, CF (R&D …); assay: ECL multispot (MSD), antigen spotted, Fab in solution; blank spot 416
[20] = molecular target: T2, rHuman P-Cadherin/Fc Chimera, CF (R&D …); assay: as above
[21] = molecular target: T3, rHuman HGF R/c-MET/Fc Chimera, CF (R&D …); assay: as above
[22] = molecular target: T4, rHuman EGF R/Fc Chimera, CF (R&D …); assay: as above
[23] = molecular target: T5, rHuman IGF-1 sR (insulin-like growth …); assay: as above
[24] = molecular target: T6, rHuman Erythropoietin R/Fc Chimera, CF …; assay: as above
[25] = molecular target: T7, rHuman CD44/Fc Chimera, CF (R&D Systems …); assay: as above
[26] = molecular target: T8, rHuman Notch-1/Fc Chimera, CF (R&D …); assay: as above
[27] = molecular target: T9, Recombinant Human DLL4 (R&D Systems …); assay: as above
[28] = molecular target: T1, rHuman ErbB2/Fc Chimera, CF (R&D …); assay: ECL multispot (MSD), antigen spotted, Fab in solution; blank spot 306
[29] = molecular target: T2, rHuman P-Cadherin/Fc Chimera, CF (R&D …); assay: as above
[30] = molecular target: T3, rHuman HGF R/c-MET/Fc Chimera, CF (R&D …); assay: as above
[31] = molecular target: T4, rHuman EGF R/Fc Chimera, CF (R&D …); assay: as above
[32] = molecular target: T5, rHuman IGF-1 sR (insulin-like growth …); assay: as above
[33] = molecular target: T9, Recombinant Human DLL4 (R&D Systems …); assay: as above

T3 sequence (P08581 25-932, change not shown): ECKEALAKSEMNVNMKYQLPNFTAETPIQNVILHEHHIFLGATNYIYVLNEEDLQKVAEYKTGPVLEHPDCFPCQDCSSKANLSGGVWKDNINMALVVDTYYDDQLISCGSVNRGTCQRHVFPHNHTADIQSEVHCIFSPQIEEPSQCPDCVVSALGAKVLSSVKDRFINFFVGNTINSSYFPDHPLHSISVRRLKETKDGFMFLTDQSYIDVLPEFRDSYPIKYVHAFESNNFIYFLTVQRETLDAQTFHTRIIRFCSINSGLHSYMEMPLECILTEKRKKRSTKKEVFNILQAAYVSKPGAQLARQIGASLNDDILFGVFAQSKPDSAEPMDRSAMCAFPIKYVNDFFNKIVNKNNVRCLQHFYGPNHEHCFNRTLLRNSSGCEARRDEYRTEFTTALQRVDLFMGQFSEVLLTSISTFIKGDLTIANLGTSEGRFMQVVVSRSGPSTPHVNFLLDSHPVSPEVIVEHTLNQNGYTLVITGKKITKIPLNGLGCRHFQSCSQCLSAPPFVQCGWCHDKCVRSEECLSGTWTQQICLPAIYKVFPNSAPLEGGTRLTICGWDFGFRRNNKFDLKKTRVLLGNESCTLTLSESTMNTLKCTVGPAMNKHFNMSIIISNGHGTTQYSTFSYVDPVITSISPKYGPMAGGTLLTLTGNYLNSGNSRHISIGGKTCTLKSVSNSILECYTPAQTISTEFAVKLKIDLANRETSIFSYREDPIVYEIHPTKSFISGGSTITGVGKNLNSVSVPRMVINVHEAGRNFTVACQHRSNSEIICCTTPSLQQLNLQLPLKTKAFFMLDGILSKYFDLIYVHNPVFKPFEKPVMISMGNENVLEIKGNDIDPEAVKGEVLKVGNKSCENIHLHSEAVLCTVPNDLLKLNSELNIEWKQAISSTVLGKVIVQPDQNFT

B1: Fab VH1-46_IGHD6-6*01_IGHJ1*01 S102A/S103P/S104F/H111F (APFF) & L6_IGKJ1*01 S30T (Fab, V domains shown)
VH: QVQLVQSGAEVKKPGASVKVSCKASGYTFTSYYMHWVRQAPGQGLEWMGIINPSGGSTSYAQKFQGRVTMTRDTSTSTVYMELSSLRSEDTAVYYCAREEYAPFSAEYFQFWGQGTLVTVSS
VL: EIVLTQSPATLSLSPGERATLSCRASQSVTSYLAWYQQKPGQAPRLLIYDASNRATGIPARFSGSGSGTDFTLTISSLEPEDFAVYYCQQRSNWPPWTFGQGTKVEIKR
notes: Tested as Fab made in E. coli: VH joined to CH1 from Plasmid A (His6 and Flag tags), VL joined to kappa CL from Plasmid C; also called APFF / S30T
Question: Which results are given for B1?
Answer: ECL signal [1]: 332; ECL signal [2]: 370; ECL signal [3]: 375; ECL signal [4]: 360; ECL signal [5]: 410; ECL signal [6]: 497; ECL signal [7]: 423; ECL signal [8]: 413; ECL signal [9]: 122000

B2: Fab VH1-46_IGHD6-6*01_IGHJ1*01 S102A/S103P/S104F/H111F (APFF) & L6_IGKJ1*01 S30P (Fab, V domains shown)
VH: B1 VH
VL: B1 VL with T30P
notes: Tested as Fab made in E. coli: VH joined to CH1 from Plasmid A (His6 and Flag tags), VL joined to kappa CL from Plasmid C; also called APFF / S30P
Question: For B2, which ECL signal [10] is on record?
Answer: The ECL signal was 391.

Question: What about the ECL signal [11] of the same binder?
Answer: Its ECL signal is 348.

Question: And the ECL signal [12]?
Answer: Its ECL signal is 328.

Question: And the ECL signal [13]?
Answer: The ECL signal was 394.

Question: And the ECL signal [14]?
Answer: Its ECL signal is 356.

Question: And the ECL signal [15]?
Answer: The ECL signal was 520.

Question: What about the ECL signal [16] of the same binder?
Answer: The ECL signal was 334.

Question: And the ECL signal [17]?
Answer: Its ECL signal is 544.

Question: What about the ECL signal [18] of the same binder?
Answer: The ECL signal was 1140.

B3: Fab VH1-46_IGHD6-6*01_IGHJ1*01 S102A/S103P/S104F/H111F (APFF) & L6_IGKJ1*01 S30R (Fab, V domains shown)
VH: B1 VH
VL: B1 VL with T30R
notes: Tested as Fab made in E. coli: VH joined to CH1 from Plasmid A (His6 and Flag tags), VL joined to kappa CL from Plasmid C; also called APFF / S30R
Question: What does the source list for B3?
Answer: ECL signal [19]: 434; ECL signal [20]: 465; ECL signal [21]: 458; ECL signal [22]: 456; ECL signal [23]: 404; ECL signal [24]: 571; ECL signal [25]: 455; ECL signal [26]: 576; ECL signal [27]: 146000

B4: Fab VH1-46_IGHD6-6*01_IGHJ1*01 S102A/S103P/S104F/H111F (APFF) & L6_IGKJ1*01 (Fab, V domains shown)
VH: B1 VH
VL: not shown
notes: Tested as Fab made in E. coli: VH joined to CH1 from Plasmid A (His6 and Flag tags), VL joined to kappa CL from Plasmid C; Light chain unmutated (parent); also called APFF / parent; H:APFF & L:wt
Question: For B4, which ECL signal [28] is on record?
Answer: The ECL signal was 412.

Question: What about the ECL signal [29] of the same binder?
Answer: Its ECL signal is 466.

Question: What about the ECL signal [30] of the same binder?
Answer: Its ECL signal is 349.

Question: What about the ECL signal [31] of the same binder?
Answer: Its ECL signal is 386.

Question: What about the ECL signal [32] of the same binder?
Answer: The ECL signal was 409.

Question: And the ECL signal [33]?
Answer: Its ECL signal is 208000.
